Patent US20240190996A1 (Regeneron, published 2024)
Each block holds one binder with its values, some of them ahead of it.

What was measured:
mfFXI.mmh (REGN3883) [1] = target: T1, mfFXI.mmh (REGN3883) (cynomolgus monkey (Macaca fascicularis), UniProt A0A2K5VVW4 19-624); assay: SPR (Biacore), mAb captured on anti-hFc, antigen injected, 25C
T1 construct: also called monkey FXI.mmh; recombinant cynomolgus monkey FXI; not shown: mmH tag

[2] = target: T2, human activated factor XI (hFXIa), plasma-derived (ERL) (human, UniProt P03951 19-387; P03951 388-625); assay: as above
T2 construct: After cleavage each subunit is two disulfide-linked chains; also called hFXIa (ERL); human FXIa
Procedure: (§1) Then, all FXI solutions were injected on Biacore 8K at 30 μL/min for 180 seconds and dissociation was monitored for 10 minutes.

mFXI.mmH = target: T3, mFXI.mmH (mouse, UniProt Q91Y47 19-624); assay: SPR (Biacore), REGN7508 captured on anti-hFcG, mFXI.mmH injected, 25C, pH 7.4
T3 construct: also called recombinant mouse FXI; not shown: mmH tag

[3] = target: T2, human activated factor XI (hFXIa), …; assay: SPR (Biacore), mAb captured on anti-hFc, antigen injected, 37C
Procedure: as §1

hFXI.mmh (REGN3848) [4] = target: T4, hFXI.mmh (REGN3848) (human, UniProt P03951 19-625); assay: SPR (Biacore), mAb captured on anti-hFc, antigen injected, 25C
T4 construct: Human FXI with a C-terminal myc-myc-hexahistidine tag; also called human FXI.mmh; recombinant human FXI
Procedure: as §1

[5] = target: T5, human coagulation factor XI (hFXI), plasma-derived (ERL) (human, UniProt P03951 19-625); assay: SPR (Biacore), mAb captured on anti-hFc, antigen injected, 37C
T5 construct: also called hFXI (ERL); human FXI
Procedure: as §1

mfFXI.mmh (REGN3883) [6] = target: T1, mfFXI.mmh (REGN3883); assay: as above
Procedure: as §1

rbFXI.mmH = target: T6, rbFXI.mmH (rabbit, UniProt G1SSQ6 19-623); assay: SPR (Biacore), REGN7508 captured on anti-hFcG, rbFXI.mmH injected, 25C, pH 7.4
T6 construct: also called recombinant rabbit FXI; not shown: mmH tag

[7] = target: T5, human coagulation factor XI (hFXI), …; assay: SPR (Biacore), mAb captured on anti-hFc, antigen injected, 25C; 25 C
Procedure: as §1

hFXI.mmh (REGN3848) [8] = target: T4, hFXI.mmh (REGN3848); assay: SPR (Biacore), mAb captured on anti-hFc, antigen injected, 37C
Procedure: as §1

[9] = target: T2, human activated factor XI (hFXIa), …; assay: SPR (Biacore), REGN7508 captured on anti-hFcG, antigen injected, 25C, pH 7.4
Procedure: (§2) Each concentration was tested in duplicate.
(§3) Specific binding signals were obtained by a double referencing procedure and plotted as SPR sensorgrams. […] The kinetic parameters were obtained by globally fitting these specific binding signals to a 1:1 binding model with mass transport limitation. The equilibrium dissociation constant (KD) was calculated from the ratio of the dissociation rate constant to the association rate constant (KD=kd/ka).

hFXI.mmh (REGN3848) [10] = target: T4, hFXI.mmh (REGN3848); assay: as above
Procedure: as §2, §3

mfFXI.mmh (REGN3883) [11] = target: T1, mfFXI.mmh (REGN3883); assay: as above
Procedure: as §2, §3

[12] = target: T5, human coagulation factor XI (hFXI), …; assay: as above
Procedure: as §2, §3

[13] = target: T5, human coagulation factor XI (hFXI), …; assay: SPR (Biacore), mAb captured on anti-hFc, antigen injected, 25C
Procedure: as §1

[14] = target: T2, human activated factor XI (hFXIa), …; assay: cell-based or functional assay
[15] = target: T5, human coagulation factor XI (hFXI), …; assay: cell-based or functional assay

T4 sequence (P03951 other isoform, or with tags, fused parts or gaps limits assumed): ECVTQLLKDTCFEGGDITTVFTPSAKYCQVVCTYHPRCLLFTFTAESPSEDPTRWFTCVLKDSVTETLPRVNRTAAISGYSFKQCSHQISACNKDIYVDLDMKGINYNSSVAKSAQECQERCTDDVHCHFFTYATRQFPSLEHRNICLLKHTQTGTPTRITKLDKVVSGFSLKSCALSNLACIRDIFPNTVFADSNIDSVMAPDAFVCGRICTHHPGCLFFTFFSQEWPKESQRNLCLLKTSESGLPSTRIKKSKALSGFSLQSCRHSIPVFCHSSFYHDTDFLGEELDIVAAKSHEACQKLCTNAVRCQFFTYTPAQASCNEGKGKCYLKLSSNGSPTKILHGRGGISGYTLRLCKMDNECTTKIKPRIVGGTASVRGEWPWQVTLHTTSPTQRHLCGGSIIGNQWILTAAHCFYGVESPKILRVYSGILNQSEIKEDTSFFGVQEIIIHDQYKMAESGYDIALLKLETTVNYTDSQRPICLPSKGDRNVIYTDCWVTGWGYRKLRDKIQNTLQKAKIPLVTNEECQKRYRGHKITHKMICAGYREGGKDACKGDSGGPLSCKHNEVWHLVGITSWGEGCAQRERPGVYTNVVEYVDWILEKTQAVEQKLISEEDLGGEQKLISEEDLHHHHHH
T2 sequence (P03951 19-387 limits assumed, chain 1 of 2): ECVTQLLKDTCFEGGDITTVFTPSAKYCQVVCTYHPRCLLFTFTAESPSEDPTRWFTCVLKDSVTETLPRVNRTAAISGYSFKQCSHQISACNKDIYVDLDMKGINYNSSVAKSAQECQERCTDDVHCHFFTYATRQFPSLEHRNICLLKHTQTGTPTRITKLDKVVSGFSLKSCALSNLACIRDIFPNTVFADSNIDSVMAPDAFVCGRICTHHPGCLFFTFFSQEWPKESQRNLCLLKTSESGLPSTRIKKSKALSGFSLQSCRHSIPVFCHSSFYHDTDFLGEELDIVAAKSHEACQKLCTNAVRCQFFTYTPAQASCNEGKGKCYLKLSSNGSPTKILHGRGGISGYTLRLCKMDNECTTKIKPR
T2 sequence (P03951 388-625 limits assumed, chain 2 of 2): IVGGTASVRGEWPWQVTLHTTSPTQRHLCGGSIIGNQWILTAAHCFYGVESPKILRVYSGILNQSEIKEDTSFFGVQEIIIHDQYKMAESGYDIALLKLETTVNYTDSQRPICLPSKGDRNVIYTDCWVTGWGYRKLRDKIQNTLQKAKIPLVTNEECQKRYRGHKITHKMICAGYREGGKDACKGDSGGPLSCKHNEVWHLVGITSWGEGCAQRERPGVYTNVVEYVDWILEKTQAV
T1 sequence (A0A2K5VVW4 entry or part of it): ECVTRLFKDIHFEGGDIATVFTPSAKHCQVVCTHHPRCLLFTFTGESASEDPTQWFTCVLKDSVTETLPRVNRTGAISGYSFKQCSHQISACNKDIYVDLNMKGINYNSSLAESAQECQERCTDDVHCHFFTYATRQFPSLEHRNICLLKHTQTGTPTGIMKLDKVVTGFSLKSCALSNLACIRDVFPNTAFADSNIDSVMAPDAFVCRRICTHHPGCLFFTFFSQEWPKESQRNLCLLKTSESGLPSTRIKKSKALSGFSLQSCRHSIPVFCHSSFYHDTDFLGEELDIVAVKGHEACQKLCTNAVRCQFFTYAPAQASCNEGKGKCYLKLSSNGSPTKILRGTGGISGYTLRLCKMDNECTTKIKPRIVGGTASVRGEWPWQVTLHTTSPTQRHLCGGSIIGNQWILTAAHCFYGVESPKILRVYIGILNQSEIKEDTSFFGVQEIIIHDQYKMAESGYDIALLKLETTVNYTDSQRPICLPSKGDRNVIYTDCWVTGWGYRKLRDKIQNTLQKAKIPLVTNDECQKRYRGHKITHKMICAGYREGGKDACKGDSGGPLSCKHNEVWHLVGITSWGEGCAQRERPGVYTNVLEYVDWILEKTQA
T5 sequence (P03951 19-625): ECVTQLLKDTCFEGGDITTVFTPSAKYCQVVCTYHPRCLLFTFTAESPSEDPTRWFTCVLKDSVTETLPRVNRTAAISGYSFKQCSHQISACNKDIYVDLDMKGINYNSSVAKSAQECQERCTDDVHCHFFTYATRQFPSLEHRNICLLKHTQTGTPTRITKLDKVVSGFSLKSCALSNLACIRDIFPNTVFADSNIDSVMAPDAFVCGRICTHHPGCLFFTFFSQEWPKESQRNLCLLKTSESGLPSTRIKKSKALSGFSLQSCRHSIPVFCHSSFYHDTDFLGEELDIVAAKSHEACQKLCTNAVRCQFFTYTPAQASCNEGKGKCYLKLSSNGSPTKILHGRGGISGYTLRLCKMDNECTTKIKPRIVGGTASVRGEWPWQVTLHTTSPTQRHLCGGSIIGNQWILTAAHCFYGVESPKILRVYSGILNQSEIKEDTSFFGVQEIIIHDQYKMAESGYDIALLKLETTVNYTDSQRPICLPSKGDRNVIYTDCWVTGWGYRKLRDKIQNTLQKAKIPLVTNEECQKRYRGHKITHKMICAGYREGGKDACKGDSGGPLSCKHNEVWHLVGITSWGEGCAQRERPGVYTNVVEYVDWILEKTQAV
T6 sequence (G1SSQ6 entry or part of it): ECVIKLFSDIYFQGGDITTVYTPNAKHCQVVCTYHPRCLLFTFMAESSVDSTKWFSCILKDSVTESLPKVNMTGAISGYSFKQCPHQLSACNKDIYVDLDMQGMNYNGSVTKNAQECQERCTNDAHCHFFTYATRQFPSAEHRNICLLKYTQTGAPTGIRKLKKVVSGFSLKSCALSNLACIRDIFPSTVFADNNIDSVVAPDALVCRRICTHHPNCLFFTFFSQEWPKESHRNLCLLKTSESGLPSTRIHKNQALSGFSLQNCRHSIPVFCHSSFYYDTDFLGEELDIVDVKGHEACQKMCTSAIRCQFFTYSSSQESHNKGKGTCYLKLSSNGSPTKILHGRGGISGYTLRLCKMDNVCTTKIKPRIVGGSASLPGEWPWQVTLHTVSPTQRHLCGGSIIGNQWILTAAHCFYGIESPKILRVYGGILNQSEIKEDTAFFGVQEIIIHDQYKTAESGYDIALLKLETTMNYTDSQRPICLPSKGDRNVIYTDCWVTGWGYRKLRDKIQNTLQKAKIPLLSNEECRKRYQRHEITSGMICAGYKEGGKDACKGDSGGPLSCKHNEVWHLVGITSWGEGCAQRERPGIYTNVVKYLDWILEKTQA
T3 sequence (Q91Y47 19-624): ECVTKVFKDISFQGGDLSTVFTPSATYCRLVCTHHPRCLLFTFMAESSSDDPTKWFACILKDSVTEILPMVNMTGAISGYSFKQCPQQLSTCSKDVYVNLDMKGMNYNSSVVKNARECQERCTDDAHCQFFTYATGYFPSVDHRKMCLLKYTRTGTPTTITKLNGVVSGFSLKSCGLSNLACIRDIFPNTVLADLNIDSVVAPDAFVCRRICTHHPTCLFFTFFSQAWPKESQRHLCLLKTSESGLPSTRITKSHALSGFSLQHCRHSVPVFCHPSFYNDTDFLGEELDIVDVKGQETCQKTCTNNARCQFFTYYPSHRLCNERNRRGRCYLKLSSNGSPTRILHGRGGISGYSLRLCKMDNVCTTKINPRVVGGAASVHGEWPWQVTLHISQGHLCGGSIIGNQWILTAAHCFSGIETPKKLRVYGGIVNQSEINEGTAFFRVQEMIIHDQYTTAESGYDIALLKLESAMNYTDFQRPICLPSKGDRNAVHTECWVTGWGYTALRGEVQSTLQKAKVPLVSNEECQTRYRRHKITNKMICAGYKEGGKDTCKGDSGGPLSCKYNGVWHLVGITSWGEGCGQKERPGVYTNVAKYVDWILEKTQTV

- Kd (mfFXI.mmh (REGN3883) [1]): ≤ 0.00481 nM
- koff (mfFXI.mmh (REGN3883) [1]): ≤ 1e-05 s⁻¹
- kon (mfFXI.mmh (REGN3883) [1]): 2.08e+06 M⁻¹ s⁻¹
- t½ (mfFXI.mmh (REGN3883) [1]): ≥ 19.2 h
- Kd [2]: ≤ 0.0311 nM
- koff [2]: ≤ 1e-05 s⁻¹
- kon [2]: 321000 M⁻¹ s⁻¹
- t½ [2]: ≥ 19.2 h
- binding result (mFXI.mmH): no binding (tested: 50 nM)
- Kd [3]: 0.256 nM
- koff [3]: 0.000121 s⁻¹
- kon [3]: 475000 M⁻¹ s⁻¹
- t½ [3]: 1.58 h
- Kd (hFXI.mmh (REGN3848) [4]): ≤ 0.00534 nM
- koff (hFXI.mmh (REGN3848) [4]): ≤ 1e-05 s⁻¹
- kon (hFXI.mmh (REGN3848) [4]): 1.87e+06 M⁻¹ s⁻¹
- t½ (hFXI.mmh (REGN3848) [4]): ≥ 19.2 h
- Kd [5]: ≤ 0.00309 nM
- koff [5]: ≤ 1e-05 s⁻¹
- kon [5]: 3.24e+06 M⁻¹ s⁻¹
- t½ [5]: ≥ 19.2 h
- Kd (mfFXI.mmh (REGN3883) [6]): 0.0435 nM
- koff (mfFXI.mmh (REGN3883) [6]): 0.000111 s⁻¹
- kon (mfFXI.mmh (REGN3883) [6]): 2.56e+06 M⁻¹ s⁻¹
- t½ (mfFXI.mmh (REGN3883) [6]): 1.73 h
- binding result (rbFXI.mmH): no binding (tested: 250 nM)
- Kd [7]: ≤ 0.00454 nM
- Kd (hFXI.mmh (REGN3848) [8]): 0.0326 nM
- koff (hFXI.mmh (REGN3848) [8]): 8.86e-05 s⁻¹
- kon (hFXI.mmh (REGN3848) [8]): 2.71e+06 M⁻¹ s⁻¹
- t½ (hFXI.mmh (REGN3848) [8]): 2.17 h
- Kd [9]: 0.0102 nM
- koff [9]: 3.61e-05 s⁻¹
- kon [9]: 3.55e+06 M⁻¹ s⁻¹
- t1/2 [9]: 5.33 h
- Kd (hFXI.mmh (REGN3848) [10]): 0.00807 nM
- koff (hFXI.mmh (REGN3848) [10]): 2.7e-05 s⁻¹
- kon (hFXI.mmh (REGN3848) [10]): 3.34e+06 M⁻¹ s⁻¹
- t1/2 (hFXI.mmh (REGN3848) [10]): 7.13 h
- Kd (mfFXI.mmh (REGN3883) [11]): 0.00373 nM
- koff (mfFXI.mmh (REGN3883) [11]): 9.62e-06 s⁻¹
- kon (mfFXI.mmh (REGN3883) [11]): 2.58e+06 M⁻¹ s⁻¹
- t1/2 (mfFXI.mmh (REGN3883) [11]): 20 h
- Kd [12]: 0.003 nM
- koff [12]: 9.36e-06 s⁻¹
- kon [12]: 3.12e+06 M⁻¹ s⁻¹
- t1/2 [12]: 20.6 h
- koff [13]: ≤ 1e-05 s⁻¹
- kon [13]: 2.2e+06 M⁻¹ s⁻¹
- t½ [13]: ≥ 19.2 h
B1: REGN7508 (antibody, human IgG4 S228P, kappa, V domains shown)
VH: QVQLVESGGGLVKPGGSLRLSCAASGFTFSDYSMNWIRQAPGKGLEWISYISFSGNSIYYADSVKGRFTISRDNAKNSLYLQMNSLRVEDTAIYYCTSRDWGYAFDIWGQGTMVTVSS
VL: DIQMTQSPSFLSASLGDRVTITCQASQDISNYLNWYQVKPGKAPKLLIYDASNLETGVPSRFSGSGSGTDFTFTISSLQPEDIATYFCQQYDNLPYIFGQGTKLEIKR
notes: also called Subject mAb [REGN7508]; subject anti-FXI mAb

- Kd (mfFXI.mmh (REGN3883) [1]): ≤ 0.0644 nM
- koff (mfFXI.mmh (REGN3883) [1]): ≤ 1e-05 s⁻¹
- kon (mfFXI.mmh (REGN3883) [1]): 155000 M⁻¹ s⁻¹
- t½ (mfFXI.mmh (REGN3883) [1]): ≥ 19.2 h
- Kd (hFXI.mmh (REGN3848) [4]): ≤ 0.116 nM
- koff (hFXI.mmh (REGN3848) [4]): ≤ 1e-05 s⁻¹
- kon (hFXI.mmh (REGN3848) [4]): 86200 M⁻¹ s⁻¹
- t½ (hFXI.mmh (REGN3848) [4]): ≥ 19.2 h
- Kd [5]: 0.0365 nM
- koff [5]: ≤ 1e-05 s⁻¹
- kon [5]: 274000 M⁻¹ s⁻¹
- t½ [5]: ≥ 19.2 h
- Kd (mfFXI.mmh (REGN3883) [6]): 0.268 nM
- koff (mfFXI.mmh (REGN3883) [6]): 8.6e-05 s⁻¹
- kon (mfFXI.mmh (REGN3883) [6]): 321000 M⁻¹ s⁻¹
- t½ (mfFXI.mmh (REGN3883) [6]): 2.24 h
- Kd (hFXI.mmh (REGN3848) [8]): 0.387 nM
- koff (hFXI.mmh (REGN3848) [8]): 8.77e-05 s⁻¹
- kon (hFXI.mmh (REGN3848) [8]): 226000 M⁻¹ s⁻¹
- t½ (hFXI.mmh (REGN3848) [8]): 2.19 h
- Kd [13]: ≤ 0.119 nM
- koff [13]: ≤ 1e-05 s⁻¹
- kon [13]: 83800 M⁻¹ s⁻¹
- t½ [13]: ≥ 19.2 h
- IC50 [M], FXIa, 0.13% plasma (chromogenic FXa generation, BIOPHEN Factor XIa kit) [14]: > 1e-08 M
- IC50 [M], FXI, 0.13% plasma (chromogenic FXa generation, BIOPHEN Factor XIa kit) [15]: 1.9e-10 M
B2: REGN9932 (antibody, human IgG4 S228P, kappa, V domains shown)
VH: QVQLVESGGGVVQPGRSLRLSCAASGFTFSNYEMHWVRQTPGKGLEWVALIWYDGSNKYSGDSVKGRFTISRDNSKSTLYLQMNSLTAEDTAVYYCTGITGTEDAFDVWGQGTMVTVSS
VL: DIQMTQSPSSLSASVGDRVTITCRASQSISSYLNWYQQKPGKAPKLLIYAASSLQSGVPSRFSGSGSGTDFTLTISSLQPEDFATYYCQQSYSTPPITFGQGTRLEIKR
notes: also called anti-FXI mAb [REGN9932]
